Measurements as given in article PMC3545708.
pKd: −log10 of the molar value.

Biological target: isolated HC fragment of BoNT/A (receptor-binding domain), wild type (Clostridium botulinum)
Assay: ITC

full-length NTNHA-A1 (non-toxic non-hemagglutinin protein) (from UniProt Q45914 1-1193) (natural protein)
pKd: 7.32
